Article PMC4819448, “Co-operative and Hierarchical Binding of c-FLIP and Caspase-8: A Unified Model Defines How c-FLIP Isoforms Differentially Control Cell Fate” (Molecular Cell, 2016)

T1: endogenous FADD (human (endogenous in Jurkat, BJAB and …, UniProt Q13158 1-208))
T1 construct: FADD, endogenous; source: endogenous, lysates of caspase-8 null Jurkat, BJAB and HaCaT cells
T1 sequence (looked up): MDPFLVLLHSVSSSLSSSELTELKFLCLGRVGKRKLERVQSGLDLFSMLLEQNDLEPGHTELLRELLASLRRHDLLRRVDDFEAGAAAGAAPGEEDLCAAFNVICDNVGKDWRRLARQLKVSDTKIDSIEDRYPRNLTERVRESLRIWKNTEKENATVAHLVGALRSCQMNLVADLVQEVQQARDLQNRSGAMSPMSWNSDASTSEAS

B1: endogenous caspase-8 (natural protein, human (endogenous in BJAB and HaCaT), UniProt Q14790 1-479, looked up)
chain: MDFSRNLYDIGEQLDSEDLASLKFLSLDYIPQRKQEPIKDALMLFQRLQEKRMLEESNLSFLKELLFRINRLDLLITYLNTRKEEMERELQTPGRAQISAYRVMLYQISEEVSRSELRSFKFLLQEEISKCKLDDDMNLLDIFIEMEKRVILGEGKLDILKRVCAQINKSLLKIINDYEEFSKERSSSLEGSPDEFSNGEELCGVMTISDSPREQDSESQTLDKVYQMKSKPRGYCLIINNHNFAKAREKVPKLHSIRDRNGTHLDAGALTTTFEELHFEIKPHDDCTVEQIYEILKIYQLMDHSNMDCFICCILSHGDKGIIYGTDGQEAPIYELTSQFTGLKCPSLAGKPKVFFIQACQGDNYQKGIPVETDSEEQPYLEMDLSSPQTRYIPDEADFLLGMATVNNCVSYRNPAEGTWYIQSLCQSLRERCPRGDDILTILTEVNYEVSNKDDKKNMGKQMPQPTFTLRKKLVFPSD
notes: caspase-8, endogenous; procaspase-8 and p43/41 cleavage fragments detected; also called procaspase-8; p43/41 cleavage fragments; source: endogenous, BJAB and HaCaT lysates

What was measured:
[1] = molecular target: endogenous caspase-8 (human (endogenous in BJAB and HaCaT)) (UniProt Q14790); test: affinity purification with mass spectrometry; native TRAIL DISC from c-FLIPS overexpressing BJAB cells; label-free absolute quantification (TOP 3) by LC-MS/MS, n = 3
[2] = molecular target: endogenous caspase-8 (human (endogenous in BJAB and HaCaT)) (UniProt Q14790); test: affinity purification with mass spectrometry; native CD95 DISC from c-FLIPS overexpressing HaCaT cells; label-free absolute quantification (TOP 3) by LC-MS/MS, n = 3
endogenous FADD [3] = molecular target: T1, endogenous FADD; test: affinity purification with mass spectrometry; native TRAIL DISC from c-FLIPS overexpressing BJAB cells; label-free absolute quantification (TOP 3) by LC-MS/MS, n = 3; conditions: partners not purified
endogenous FADD [4] = molecular target: T1, endogenous FADD; test: affinity purification with mass spectrometry; native TRAIL DISC from control (vector) BJAB cells; label-free absolute quantification (TOP 3) by LC-MS/MS, n = 3; conditions: partners not purified

Molecule | stoichiometry N [1] | stoichiometry N [2] | stoichiometry N (endogenous FADD [3]) | stoichiometry N (endogenous FADD [4])
c-FLIPS stably overexpressed in BJAB or HaCaT cells (natural protein) | 1 | 1 | – | –
B1 | – | – | ~1 | ~6 fold
